TLR5 activity (EC50, ng/ml) and TLR activity (EC50, ng/ml) data for two molecules are collected here from patent publication US20130224798A1.

The test deals with Toll-like Receptor 5 (TLR5) constitutively expressed by HEK293 cells (UniProt O60602). Description: cell-based or functional assay.

B1: STF2.HA1-3(PR8), produced in E. coli (protein)
chain: MAQVINTNSLSLLTQNNLNKSQSALGTAIERLSSGLRINSAKDDAAGQAIANRFTANIKGLTQASRNANDGISIAQTTEGALNEINNNLQRVRELAVQSANSTNSQSDLDSIQAEITQRLNEIDRVSGQTQFNGVKVLAQDNTLTIQVGANDGETIDIDLKQINSQTLGLDSLNVQKAYDVKDTAVTTKAYANNGTTLDVSGLDDAAIKAATGGTNGTASVTGGAVKFDADNNKYFVTIGGFTGADAAKNGDYEVNVATDGTVTLAAGATKTTMPAGATTKTEVQELKDTPAVVSADAKNALIAGGVDATDANGAELVKMSYTDKNGKTIEGGYALKAGDKYYAADYDEATGAIKAKTTSYTAADGTTKTAANQLGGVDGKTEVVTIDGKTYNASKAAGHDFKAQPELAEAAAKTTENPLQKIDAALAQVDALRSDLGAVQNRFNSAITNLGNTVNNLSEARSRIEDSDYATEVSNMSRAQILQQAGTSVLAQANQVPQNVLSLLANSENGICYPGDFIDYEELREQLSSVSSFERFEIFPKESSWPNHNTNGVTAACSHEGKSSFYRNLLWLTEKEGSYPKLKNSYVNKKGKEVLVLWGIHHPPNSKEQQNLYQNENAYVSVVTSNYNRRFTPEIAERPKVRDQAGRMNYYWTLLKPGDTIIFEANGNLIAPMYAFALSRG
The molecule B1 returned a TLR5 activity (EC50, ng/ml) of 1.2 ng/mL.

B2: STF2.HA1-1His(PR8), produced in Baculovirus (protein)
chain: AQVINTNSLSLLTQNNLNKSQSALGTAIERLSSGLRINSAKDDAAGQAIANRFTANIKGLTQASRNANDGISIAQTTEGALNEINNNLQRVRELAVQSANSTNSQSDLDSIQAEITQRLNEIDRVSGQTQFNGVKVLAQDNTLTIQVGANDGETIDIDLKQINSQTLGLDSLNVQKAYDVKDTAVTTKAYANNGTTLDVSGLDDAAIKAATGGTNGTASVTGGAVKFDADNNKYFVTIGGFTGADAAKNGDYEVNVATDGTVTLAAGATKTTMPAGATTKTEVQELKDTPAVVSADAKNALIAGGVDATDANGAELVKMSYTDKNGKTIEGGYALKAGDKYYAADYDEATGAIKAKTTSYTAADGTTKTAANQLGGVDGKTEVVTIDGKTYNASKAAGHDFKAQPELAEAAAKTTENPLQKIDAALAQVDALRSDLGAVQNRFNSAITNLGNTVNNLSEARSRIEDSDYATEVSNMSRAQILQQAGTSVLAQANQVPQNVLSLLASGSGSGSSHNGKLCRLKGIAPLQLGKCNIAGWLLGNPECDPLLPVRSWSYIVETPNSENGICYPGDFIDYEELREQLSSVSSFERFEIFPKESSWPNHNTNGVTAACSHEGKSSFYRNLLWLTEKEGSYPKLKNSYVNKKGKEVLVLWGIHHPPNSKEQQNLYQNENAYVSVVTSNYNRRFTPEIAERPKVRDQAGRMNYYWTLLKPGDTIIFEANGNLIAPMYAFALSRGFGSGIITSNASMHECNTKCQTPLGAINSSLPYQNIHPVTIGECPKYVRHHHHHH
The molecule B2 returned a TLR activity (EC50, ng/ml) of 3 ng/mL.
